In article PMC3314968, “The UBAP1 Subunit of ESCRT-I Interacts with Ubiquitin via a SOUBA Domain” (Structure(London, England:1993), 2012) one finds Kd data, which are given here for one molecule.

In this assay the target is T1, monoubiquitin (SIGMA U6253) (UniProt P0CG48 1-76).
T1 construct: ubiquitin, the 76-residue cut product of a ubiquitin precursor; source: bought: SIGMA U6253
Kind of assay: ITC; Microcal ITC200; 20 mM Tris-HCl (pH 7.5), 100 mM NaCl, 1 mM TCEP; SOUBA domain at 150 μM in the cell, 38 injections of monoubiquitin at 3 mM; single set of independent sites. Particulars: both partners purified. In general terms: Isothermal titration calorimetry measures the heat released or taken up as one component is titrated into another.

B1: human UBAP1 SOUBA domain (389-502), wild-type (domain or fragment, UniProt Q9NZ09 389-502, looked up)
chain: SPSERQCVETVVNMGYSYECVLRAMKKKGENIEQILDYLFAHGQLCEKGFDPLLVEEALEMHQCSEEKMMEFLQLMSKFKEMGFELKDIKEVLLLHNNDQDNALEDLMARAGAS
notes: UBAP1, human, residues 389-502 (SOUBA domain); The His6 tag is followed by a TEV protease cleavage site; whether it was cut is told in the Supplemental Experimental Procedures; Used unlabeled or 15N- (13C/15N-) labeled in NMR; also called UBAP1(389-502); UBAP1_389-502; source: recombinant, from the pOPTH(tev) expression vector, purified (details in Supplemental Experimental Procedures)
B1: the Kd was roughly 70 µM.

The term Kd denotes a measure of binding affinity in units of concentration. Lower therefore signals higher affinity.
